The source of these data is publication PMC10627809, “Histones with an unconventional DNA-binding mode in vitro are major chromatin constituents in the bacterium Bdellovibrio bacteriovorus” (Nature Microbiology, 2023).

One data set has as its target T1, Bd0055 (UniProt Q6MRM1 1-64).
T1 sequence: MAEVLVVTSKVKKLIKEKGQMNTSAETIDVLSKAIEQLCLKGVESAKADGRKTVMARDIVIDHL
Briefly: X-ray crystallography; 1 dimer per 2.5 bp; straight DNA; asymmetric unit has one dimer with 2 nt + 3 nt; FP/FRET: 10 nM DNA, 10 mM NaCl, 1 mM EDTA, 50 mM HEPES pH 6, r.t.; EMSA: 1 µM DNA, 10 mM NaCl, 1 mM EDTA, 50 mM HEPES pH 7.5, r.t., 10% native PAGE 0.2x TBE. Conditions: protein: recombinant; chain copies: 2; blunt. Background: In EMSA bound probe runs differently from free probe, usually more slowly.

Data set [1] concerns the molecule itself. Briefly: crystal structure; apo Bd0055; hanging drop, 3.2 M (NH4)2SO4, 100 mM BICINE pH 9; 1.8 Å.

B1: 35 bp crystallization DNA (dsDNA)
DNA 1: TCTTGCACTAAGAGCTACTGGAGTGCGTCAGATGT
DNA 2: ACATCTGACGCACTCCAGTAGCTCTTAGTGCAAGA
As for B1, in the data set with Bd0055, the binding result is “binds”.

B2: Bd0055, B. bacteriovorus histone (natural protein, Bdellovibrio bacteriovorus HD100, UniProt Q6MRM1 1-64, looked up)
chain: MAEVLVVTSKVKKLIKEKGQMNTSAETIDVLSKAIEQLCLKGVESAKADGRKTVMARDIVIDHL
notes: Bd0055, singlet histone-fold protein of Bdellovibrio bacteriovorus HD100; open reading frame codon optimized for E. coli, cloned into a pET vector; No tag is named; purified by cation exchange, heparin and size exclusion; Histone-fold homodimer in both crystal structures; also called wild type Bd0055; bacterial histone Bd0055; source: E. coli, purified (SP HP, Heparin HP, S75)
With B2, the binding result in data set [1] was “binds”.
